Experimental data as given in the DeepSol protein solubility set.

Test: soluble on expression in E. coli; label from the status in PepcDB or PDB records

Sequence | soluble on expression in E. coli
MSEFDELKYLTGFGNEHATSDPRVPDALPVGQNSPQKCSHGLYAEQLSGTAFTAPRSQNQRSWLYRIRPSVIHRPFEAMKENDQHWTNNFSSIPPNPNQYRWNPFPLPTKEGVTFVDNLYTVCGGGDVISRTGLAIHQFSCNASMEHTAMYNSDGDFLIVPQQGALEITTEFGRLLVNPQEIAVIPQGIRFSVAVRGPSRGYILEVYGTHFQLPDLGPIGANGLANPRDFEAPVAWFEDLDVEFTIINKYQGSWFQAKQGHSPFDVVGWHGNYVPYKYDLKKFMVINTVSFDHCDPSIFTVLTAPSVKHGTAIADFVIFPPRWGCADNTFRPPYYHRNCMSEYMGLITGCYEAKEGGFKPGGGSLHSMMTPHGPDFNCFEMASNADLKPQRVAEGTMSFMFESSLNMAITNWAVYQNVDKDYYKDWQPLKKHFTMPK | not soluble
MDELNSPLGERAQGASLAHVVWSDPQWLERYPLTFENVLTYFSRSPFYDPTCNNELVRMQMHPELQGEMLYYTQREEELLLGMQGVEYVPLCSSDAHELFIIRKQVRRSADEVHVTNLYYILYGQVYEAPAFSTVLLVRLRQSADFLVRSLGLLRQWLSKKEYGEPGATGHGHEDTLLLQLLRKAQQRNRQL | not soluble
MQYVKIKDSIVEQIEAGMLSPRQKLPAERKLAESFDTTRVTLREALSLLEAEGRIYREDRRGWFISPEPLRYDPTQTLNFPNMAKAQNRVPKTELIAAKGTLANKQSARLLQLQPFSDVFRVDRVRYLEDRPVVYVTNYIRPEIFPNLLSFDLTNSLTDIYREHFGVVYQKTRYRISTSTLLGEVAQALRATSGTPAMVVERTNYNQHGELIDCDIEYWRHDAISIESVAELNQ | not soluble
MELASNFDEFISTQSIEEGLDFGCNLLSSALRLQGDTDPAQAQVLLQELTQYLSLRYVGEHGLALEYLAGLGHQCSPDNYRHSQFWGQLKWIANEIGLSDTALNSLALPPGVLRSGGA | not soluble
MPSEPGKNMIQHAGLGYRRDLAEDFLSLSENSPICFIEAAPENWLKMGGWARKQFDRVAERLPLALHGLSMSLGGQAPLDTDLIDGIKEMMRRYDCTFFSDHLSYCHDGGHLYDLLPLPFTEEMVHHTARRIREVQDRLGCRIAVENTSYYLHSPLAEMNEVEFLNAVAREADCGIHLDVNNIYVNAVNHGLLSPEAFLENVDAERVCYIHIAGHDVETPELLIDTHGAAVLPTVWDLLELAYAKLPTIPPTLLERDFNFPPFSELEAEVAKIADYQTRAGKECRRAA | not soluble
MIFDHGKKLMKRVERYSGCSSGSLVAAMFIFNPEKLVFLVSFRKTKGRLPLFSLFLLNFRNLCILSISEAVEEIYKMADEVNDKTLGAMSPGFVISDRLRKVVEKFLPDDVAKANDLLFVSVTKLKTWKNELISNFESKIDLIDCLMASCYHPMYSSGLNGKAPILRGEAYIDGGYSNMIPEFLDMRTVTVSAFAGDADICPVEKSALFNDFMFAFFNQNMKLTLSNMKRVTNALFPPTRAILQEYFNAGARDAEKLLKDSGFYE | not soluble
MGSDKIHHHHHHLNTDPSTAVPSDDAIKNIDDAQVALNGIYRLASAHSYYGDNYLYYADCRGEDVQARINKGAGRRVSPYYFFDVTADDNFNITLVWNQPYKVIHQANSLIEKLDAGNAGNARPEEVARIKSEALAMRGLALFDLTRLFGMPYTLDNGASLGVPIEIQTTLEDHAPERNTVAQCYEQVLKDLNDALGGLTKEKHDAYMNYWSVKALLSRVYLYMNDNENALKCAEEVINDNGGIYRLFTHDEYPSVWGKDFNSESLFEFYFTMSEPSGGSGGEGAPMVYADNVKDWNNLILTKAYLDLLNEDPEDVRHVFPHLPENAVADTLPVAAKGQPKYLIKYPGKSGSVTDAVSTVNPQDNDLCILRLSEVYLNAAEAAFKIGNTEKALTYLNAIVTRANPAKSVTSADLSLERILKERRKELVGEGHAFFDYMRNGKSVDRSGGWHLTMPEDARVIAPSDPRVALPIPQTEIDANPNIVQNPR | not soluble
MTEAMKITLSTQPADARWGEKATYSINNDGITLHLNGADDLGLIQRAARKIDGLGIKHVQLSGEGWDADRCWAFWQGYKAPKGTRKVVWPDLDDAQRQELDNRLMIIDWVRDTINAPAEELGPSQLAQRAVDLISNVAGDRVTYRITKGEDLREQGYMGLHTVGRGSERSPVLLALDYNPTGDKEAPVYACLVGKGITFDSGGYSIKQTAFMDSMKSDMGGAATVTGALAFAITRGLNKRVKLFLCCADNLISGNAFKLGDIITYRNGKKVEVMNTDAEGRLVLADGLIDASAQKPEMIIDAATLTGAAKTALGNDYHALFSFDDALAGRLLASAAQENEPFWRLPLAEFHRSQLPSNFAELNNTGSAAYPAGASTAAGFLSHFVENYQQGWLHIDCSATYRKAPVEQWSAGATGLGVRTIANLLTA | soluble
SNAMNPIEFWFDFSSGYAFFAAQRIEALAAELGRTVLWRPYMLGAAFSVTGARGLSSTPLKRDYAQRDWARIARQRGLTFRPPADHPHVALAATRAFYWIEAQSPDAATAFAQRVFDLYFSDRLDTASPEAVSRLGPEVGLEPEALLAGIADPALKETVRKIGEDAVARGIFGSPFFLVDDEPFWGWDRMEMMAEWIRTGGW | soluble
MQLISDRTSGAIHEIFGRDKALIGMIHCPPFPGAPRYRGETMDTIVDACLRDAERLVAGGLHGLVVENHGDIPFSKPDDIGPETAACLGVVTDRIRRAFGVPLGINVLANAPLPALAAAVAGGALFIRVNQWANAYVANEGFMEGRAAEAMRYRSLLRAEHVRIFADSHVKHGSHAIVADRSIPELTRDLAFFDADCIIATGQRTGDSATIAEIEEIGGATHLPLLVGSGVTEANVVEILKRTNGVIVASSLKEGGVWWNPVDPERVARFVAAAREGLDGLEHHHHHH | not soluble
MKLPVVESFFSLQGEGKRIGKPSLFLRLGGCNLSCKGFNCKTLLNDEILTGCDSLYAVHPKFKTSWDYYNEPKPLIERLEDLAPNYKDFDFILTGGEPSLYFNNPILISVLEHFYRQKIPLCVESNGSIFFEFSPILKELHFTLSVKLSFSLEEESKRIHLKALQNILNNAKSAHFKFVLESQNAAQSIIEIQSLLKQLSLKNNEIFLMPLGTNNNELDKNLKTLAPLAIKHGFRLSDRLHIRLWDNQKGF | not soluble
MLNIGYPFWPSMRFKPRPFITPVRFKCLFCLDCCRGRHVYLTVSDIKRLVGSGHDPQKFLTFSIEGGNIRFVLSVREWDLGCIFHDPGTGKCTIHPIRPLICRIYPFMVSKRPLGVEGEEPVQYKGRMLWLYYDESCPGINSQEGEVITPEEIAELGVKFEEELSRTTFEDVIKVLLEHHHHHH | soluble
MVDLGFSLYPERYDVTKSKAYIDLCHSYGAKRLFMSLLQLAPADHQMFHCYAELIAYANQLGIRVIADVSPSFISQAGWSDQLIERAHAFGLAGLRLDEALPLAEIVTLTRNPFGLKIELNMSTDKQLLMSLLATDAERSNIIGCHNFYPHEFTGLSWQHFKDMSRFYHEHDIETAAFITAQSASEGPWLLAEGLPTVEDHRHLPIGLQVELMKAIGTIDNILISNQFISEEELAACTQALARPVTTIKVRPIIDLTEVEEQIIGYPHCYRGDVSDYVIRSTMPRLVYAQESIAPRDQSKEVKRGSIIIDNDRYHRYKGELQIALKNFTVSSKANVVAEVREDYLSLLDDLRPWQEFCLEIAPS | not soluble
MAHHHHHHMASPASTNPAHDHFETFVQAQLCQDVLSSFQGLCRALGVESGGGLSQYHKIKAQLNYWSAKSLWAKLDKRASQPVYQQGQACTNTKCLVVGAGPCGLRAAVELALLGARVVLVEKRIKFSRHNVLHLWPFTIHDLRALGAKKFYGRFCTGTLDHISIRQLQLLLLKVALLLGVEIHWGVKFTGLQPPPRKGSGWRAQLQPNPPAQLASYEFDVLISAAGGKFVPEGFTIREMRGKLAIGITANFVNGRTVEETQVPEISGVARIYNQKFFQSLLKATGIDLENIVYYKDETHYFVMTAKKQCLLRLGVLRQDLSETDQLLGKANVVPEALQRFARAAADFATHGKLGKLEFAQDARGRPDVAAFDFTSMMRAESSARVQEKHGARLLLGLVGDCLVEPFWPLGTGVARGFLAAFDAAWMVKRWAEGAGPLEVLAERESLYQLLSQTSPENMHRNVAQYGLDPATRYPNLNLRAVTPNQVQDLYDMMDKE | soluble
MGSDKIHHHHHHMLQAQLKPANLVVTCNQTHSTMAQTDAPSTPAKPVIHAKQTAESGSSAQLRHLSRYLVRNLGMLNAAFGDLPLSPVQAHALFEIGKQPLTIKELACKLSIDKSNASRAIKHLIDKNLAQSQIHPRDSRCLVVQLTPAGKKLLLKLDTQQNQLFQEILAQLTPAQTSQIEEALMLYNQAVHNAKHQSGCHIRQATAQDDAAIAKVIRDVSAEYGLTADKGYSVADPTLDCLSQIYSQAGANYWIIELDGRILGGAGIAPLANNEGVCELQKMYFMPEIRGKGLATRVALMALDFARETGYQSCYLETTAALNEAVKLYEKLGFVHLSAPLGNTGHDACEMPMLLELNQ | not soluble
MRMIFVNLPVKNIEVSKSFFTALGFSFNPEYSDDRTLCMIVEENIFVMLLQEDRFRDFINGDIADAKQSTEVLTCLSAGSREEIDEMIATALASGGSSWKPVQDHGFMYAGSFQDPDGHVWELVHMTGQG | soluble
MSLTDAKHGETIQGPMSYGHWIAGRETHSGGASFPSHNPTTGAEWGRFALGSQDTVGDAVAAATAAFEGAEWSSLSPTRRGRLMMRWGDAIAQHAEKLGALETSQNGKLLSEMVLQARIVPDWLYYYGGLADKIEGRVIPVERRSVLNYTRREALGVVGVIMPWNSPLFLTTMAVAPALAAGNTVVIKPSEVSSASIIEAVKLAEQIGFPRGVLNVVTGGRETAEALIDHCGVAKIAFTGGVEAGRAVGVRAARRMAQVTLELGGKSANIVFPDADLAQARAGLLAGIFAAAGQTCVAGSRAFVHRSIHDRLLAELAERAKNIRIGNPLDPATQMGPVATKAQLDKDESMVRRAIDEGAQVVHGGCRAAVDGFPGGYFYTPTILTGVSPGSYIAQNEVFGPVLSVIPFDDEDEVIALANGTGFGLAAGIWSLNIRQAHRVANQLQAGTVWVNMYRAMSFNSPFGGYKASGIGRQNGIEAIDSYLQTKSIWCELSQEEGHHHHHH | not soluble
MGSDKIHHHHHHMLVNAYFIKLDSCQLPPRDLAVSVFLNLSKFNMPLTMPHLLELFVDSYFIEKKKRLRQCLQEPLDCGPVFHFSEPWEGLLSGYCTVLEDPLDGYFKLYYRGLSDGNLECSDGEVTCLALSHNGVEWFRPNLGLHKWLNRKSTNIILANNTPDSHNFTPFLDSSPTTLSHQRYKALAGVAPSGLNAYFSADGINWTNPYSKPVLTTGMFDSQNVAFWSSSEQKYVCFMRTWTGEGFSGIRTISRSTSTDFSSWTVPRRMSFGRIPLEHLYTNQTQPYPRAQQIYIGLAARFMPERQVITTEEALELSVDPSYYRDCSDVVLITSRGGNRYHRAVRQAFLKPGIGLENWVSRTNFPALGFIHTKPDEISFYMNKNYAQPNAYLSRFSFPLDRLGYLEASDSYGELITKSIPISSQDDLHLNLSTSAAGSCFVALLDENDATVSQFDMSSCLELIGNELSKPVRWLSSNGVSLRIGDSGLSSVKLHIRLLDARLFAFSLCSTDR | not soluble
MSLTNLLIRNVRPSADAALDILIEGDRIARIGPSLDAPAGCAIEDGAGALALPGLVEGHTHLDKTHWGMPWYRNQVGPRLVDRIENERHYRATSGHDAGAASLALARAFLAAGTTRIRTHVDIDTEAGLRHLHGVLATRETLRGEVDIQIVAFPQSGVLKRPGTDVLLSDALAAGADLLGGLDPCAIEGDPVEAVDVLFAIAERHGRGLDLHLHERGSMGAYSLDLILQRTATHGMQGKVTISHGFCLGDIGERERDALLARMAELGVGLVTTAPAAVPVPPVAACRAAGVTVIGGNDGVRDTWTPYGSPDMLERAMLIGMRNDFRRDDALEVALDCVTHGAARGCGFGDYGLQPGSRADVVLVDALTFAEAVVARPVRRLVVSSGKIVARNGALVEGHHHHHH | soluble
MCMSATLSRPGCGACCIAPSISSPIPGMPQGKPAGSRCVQLDDDMRCRIFGHPDRPDVCSSLQPSTELCADDREQAMTWLLKLEELTLPARLEHHHHHH | not soluble
